B1: ZNF511 (parent)
chain: EPLPVERDPAAGAAPFRFVARPVR
B2: KRT71 (parent)
chain: FGSRSLYSLGGVRSLNVASGSGKS

Variants of: B1
Experiment: protein stability index of a GFP-peptide fusion (GPS, HEK-293T) (PSI 1-6); higher = more stable
Details: c terminus: a fixed tail appended
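Further: lentivirally expressed fusions sorted by FACS into six bins by GFP to DsRed ratio, PSI derived from sequencing read proportions per bin multiplied by bin number.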

Point of comparison: EPLPVGRDPAAGAAPFRFVARPVR [E6G], protein stability index 2.08. Against it:
- EPLPVERDPAAGACPFRFVARPVR [A14C] — higher, 2.2
- EPLPVERDPAAGAMPFRFVARPVR [A14M] — higher, 2.42
- EPLPVERDPAAGAVPFRFVARPVR [A14V] — lower, 1.51
- EPLPVERDPAAGAIPFRFVARPVR [A14I] — lower, 1.31
- EPLPVERDPAAGADPFRFVARPVR [A14D] — higher, 4.71
- EPLPVEADPAAGAAPFRFVARPVR [R7A] — higher, 2.25
- EPLPVETDPAAGAAPFRFVARPVR [R7T] — higher, 3
- EPLPVECDPAAGAAPFRFVARPVR [R7C] — lower, 2.06
- EPLPVEEDPAAGAAPFRFVARPVR [R7E] — higher, 3.03
- EPLPVERDPKAGAAPFRFVARPVR [A10K] — lower, 1.72
- EPLPVERDPRAGAAPFRFVARPVR [A10R] — higher, 2.55
- EPLPVERDPWAGAAPFRFVARPVR [A10W] — lower, 1.43
- EPLPVERDPTAGAAPFRFVARPVR [A10T] — higher, 2.15
- EPLPVERDPFAGAAPFRFVARPVR [A10F] — lower, 1.64
- EPLPVERDPHAGAAPFRFVARPVR [A10H] — lower, 1.87
- EPLPVERDPAAGAAPFCFVARPVR [R17C] — higher, 3.88
- EPLPVERDPAAGAAPFWFVARPVR [R17W] — higher, 3.4
- EPLPVERDPAAGAAPFVFVARPVR [R17V] — higher, 4.21
- EPLPVERDPAAGAAPFYFVARPVR [R17Y] — higher, 2.98
- EPLPVERDPAAGAAPFIFVARPVR [R17I] — higher, 3.6
- EPLPVERDPAAGAAPFLFVARPVR [R17L] — higher, 3.64
- EPLPNERDPAAGAAPFRFVARPVR [V5N] — higher, 2.82
- EPLPIERDPAAGAAPFRFVARPVR [V5I] — higher, 2.46
- EPLPTERDPAAGAAPFRFVARPVR [V5T] — lower, 1.83
- EPLPQERDPAAGAAPFRFVARPVR [V5Q] — higher, 2.37
- EPLPVLRDPAAGAAPFRFVARPVR [E6L] — higher, 2.98
- EPLPVCRDPAAGAAPFRFVARPVR [E6C] — higher, 3.25
- EPLPVIRDPAAGAAPFRFVARPVR [E6I] — higher, 2.34
- EPLPVVRDPAAGAAPFRFVARPVR [E6V] — higher, 3.22
- EPLPVMRDPAAGAAPFRFVARPVR [E6M] — higher, 2.52
- EPLPVYRDPAAGAAPFRFVARPVR [E6Y] — lower, 2.03
- EPLPVQRDPAAGAAPFRFVARPVR [E6Q] — higher, 2.52
- EQLPVERDPAAGAAPFRFVARPVR [P2Q] — lower, 1.94
- EDLPVERDPAAGAAPFRFVARPVR [P2D] — higher, 2.55
- EILPVERDPAAGAAPFRFVARPVR [P2I] — higher, 2.12
- EGLPVERDPAAGAAPFRFVARPVR [P2G] — higher, 2.75
- EWLPVERDPAAGAAPFRFVARPVR [P2W] — lower, 1.8
- EPLPVERDLAAGAAPFRFVARPVR [P9L] — higher, 2.42
- EPLPVERDSAAGAAPFRFVARPVR [P9S] — the same, 2.08
- EPLPVERDGAAGAAPFRFVARPVR [P9G] — lower, 1.96
- EPLPVERDQAAGAAPFRFVARPVR [P9Q] — lower, 1.98
- EPLPVERDNAAGAAPFRFVARPVR [P9N] — higher, 2.24
- EPLPVERDEAAGAAPFRFVARPVR [P9E] — higher, 2.2
- EPLPVERDIAAGAAPFRFVARPVR [P9I] — higher, 2.34
- EPLPVERDPAAGAAPFRFVADPVR [R21D] — higher, 2.27
- EPLPVERDPAAGAAPFRFVAGPVR [R21G] — lower, 2.03
- EPLPVERDPAAGAAPFRFVAAPVR [R21A] — higher, 2.46

Variants of: B2
Experiment: as above
Details: c terminus: a fixed tail appended

Point of comparison: FTSRSLYSLGGVRSLNVASGSGKS [G2T], protein stability index 1.32. Against it:
- FGHRSLYSLGGVRSLNVASGSGKS [S3H] — higher, 2.06
- FGARSLYSLGGVRSLNVASGSGKS [S3A] — higher, 2.19
- FGIRSLYSLGGVRSLNVASGSGKS [S3I] — higher, 2.37
- FGCRSLYSLGGVRSLNVASGSGKS [S3C] — higher, 1.56
- FGGRSLYSLGGVRSLNVASGSGKS [S3G] — higher, 1.84
- FGDRSLYSLGGVRSLNVASGSGKS [S3D] — higher, 1.43
- FGFRSLYSLGGVRSLNVASGSGKS [S3F] — higher, 2.22
- FGERSLYSLGGVRSLNVASGSGKS [S3E] — higher, 2.22
- DGSRSLYSLGGVRSLNVASGSGKS [F1D] — higher, 4.03
- NGSRSLYSLGGVRSLNVASGSGKS [F1N] — higher, 3.85
- MGSRSLYSLGGVRSLNVASGSGKS [F1M] — higher, 3.75
- PGSRSLYSLGGVRSLNVASGSGKS [F1P] — higher, 3.92
- GGSRSLYSLGGVRSLNVASGSGKS [F1G] — higher, 3.44
- CGSRSLYSLGGVRSLNVASGSGKS [F1C] — higher, 2.87
- WGSRSLYSLGGVRSLNVASGSGKS [F1W] — higher, 2.16
- RGSRSLYSLGGVRSLNVASGSGKS [F1R] — higher, 3.55
- TGSRSLYSLGGVRSLNVASGSGKS [F1T] — higher, 3.59
- IGSRSLYSLGGVRSLNVASGSGKS [F1I] — higher, 3.33
- QGSRSLYSLGGVRSLNVASGSGKS [F1Q] — higher, 4.4
- HGSRSLYSLGGVRSLNVASGSGKS [F1H] — higher, 3.98
- SGSRSLYSLGGVRSLNVASGSGKS [F1S] — higher, 4.56
- AGSRSLYSLGGVRSLNVASGSGKS [F1A] — higher, 4.02
- YGSRSLYSLGGVRSLNVASGSGKS [F1Y] — higher, 1.64
- KGSRSLYSLGGVRSLNVASGSGKS [F1K] — higher, 4.06
- EGSRSLYSLGGVRSLNVASGSGKS [F1E] — higher, 3.83
- VGSRSLYSLGGVRSLNVASGSGKS [F1V] — higher, 3.81
- LGSRSLYSLGGVRSLNVASGSGKS [F1L] — higher, 3.43
- FWSRSLYSLGGVRSLNVASGSGKS [G2W] — higher, 1.8
- FDSRSLYSLGGVRSLNVASGSGKS [G2D] — higher, 3.02
- FNSRSLYSLGGVRSLNVASGSGKS [G2N] — higher, 2.58
- FFSRSLYSLGGVRSLNVASGSGKS [G2F] — higher, 2.33
- FSSRSLYSLGGVRSLNVASGSGKS [G2S] — higher, 1.99
- FRSRSLYSLGGVRSLNVASGSGKS [G2R] — higher, 3.5
- FPSRSLYSLGGVRSLNVASGSGKS [G2P] — higher, 2.07
- FISRSLYSLGGVRSLNVASGSGKS [G2I] — higher, 1.78
- FLSRSLYSLGGVRSLNVASGSGKS [G2L] — higher, 2.45
- FKSRSLYSLGGVRSLNVASGSGKS [G2K] — higher, 3.75
- FMSRSLYSLGGVRSLNVASGSGKS [G2M] — higher, 1.99
- FQSRSLYSLGGVRSLNVASGSGKS [G2Q] — higher, 3.09
- FYSRSLYSLGGVRSLNVASGSGKS [G2Y] — higher, 2.08
- FVSRSLYSLGGVRSLNVASGSGKS [G2V] — higher, 3.98
- FCSRSLYSLGGVRSLNVASGSGKS [G2C] — higher, 3.47
- FHSRSLYSLGGVRSLNVASGSGKS [G2H] — the same, 1.32
- FASRSLYSLGGVRSLNVASGSGKS [G2A] — higher, 2.02
- FESRSLYSLGGVRSLNVASGSGKS [G2E] — higher, 3.3

From the supplement of paper PMC10567573
